# Key:
# [1] = tested on: NorMMPD (norbornene monomer functionalized with the D-MMP peptide)
# [2] = tested on: NorMMPL (norbornene monomer functionalized with the L-MMP peptide)
# [3] = tested on: NorMMPR (norbornene monomer functionalized with the random peptide R-MMP)
# Chain of MMP-9 (chain, as listed by the source): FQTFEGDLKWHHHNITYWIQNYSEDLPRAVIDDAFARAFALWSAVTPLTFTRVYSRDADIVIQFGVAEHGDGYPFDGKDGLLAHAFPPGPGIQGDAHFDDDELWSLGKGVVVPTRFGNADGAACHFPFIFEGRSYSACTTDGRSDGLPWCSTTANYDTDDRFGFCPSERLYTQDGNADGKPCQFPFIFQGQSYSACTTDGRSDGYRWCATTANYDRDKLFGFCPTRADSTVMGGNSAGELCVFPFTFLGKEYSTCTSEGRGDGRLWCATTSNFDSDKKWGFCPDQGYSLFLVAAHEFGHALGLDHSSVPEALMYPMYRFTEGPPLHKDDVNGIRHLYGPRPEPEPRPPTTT
substance,measurement,setting,value
MMP-9,MMP-9 cleavage assay (HPLC after 24 hours of incubation with MMP-9 at 37° C.; 0.5 µM MMP-9 : 500 µM NorMMP),[1],remained intact
same,MMP-9 cleavage assay (HPLC after 24 hours of incubation with MMP-9 at 37° C.; 0.5 µM MMP-9 : 500 µM NorMMP),[2],NorMMPL was completely cleaved
same,MMP-9 cleavage assay (HPLC after 24 hours of incubation with MMP-9 at 37° C.; 0.5 µM MMP-9 : 500 µM NorMMP),[3],remained intact
